# From patent US20080098491A1, “MOUSE MODELS TO STUDY CACHEXIA” (ZOLTAN LABORATORIES LLC, priority 2006, published 2008)
# Experiments:
# B16 mouse melanoma [1] = experiment: B16 mouse melanoma model, s.c. highly purified PALP (Example 4, Experiment 1); type: in vivo; details: highly purified PALP 14-mg/kg s.c.
# Source text: The B16 mouse melanoma and MXT mouse mammary tumors were developed in first generation hybrid BDF1 (C57 B1 female×DBA/2 male) adult female mice kept at specified pathogen free (SPF) hygienic level. These models were chosen for these experiments because these mice have the complete immune system, and both tumors grow very rapidly. To develop the tumors, B16 and MXT tumor tissue fragments of about 0.1-cm^3 were surgically implanted subcutaneously into the intrascapular region to develop the tumors. Each tumor fragment contained about 1-1.5×10^6 cells. The animals were kept in macrolon cages on ventilated rack at 22-24° C. (50-60% humidity) with lighting regimen of 12/12 h light/dark. The animals had free access to tap water and were fed with sterilized standard diet (Charles River VRF1, Germany) ad libitum. […]
# In case of both tumor models the tumor size was usually in the range of 0.2 to 0.5-g when treatments started 7-11 days after tumor implantation; the mice were selected so that in the same treatment group the difference in tumor size was no greater than 0.1 gram. […] The tumor volume was determined by using calipers; this technique is well known to one having ordinary skill in the art. Tumor volume was calculated according to the generally accepted formula: V=a^2×b×7r/6, where “a” and “b” mean the shortest and longest diameter, respectively, of the measured tumor. […]
# MXT mouse mammary tumor = experiment: Cisplatin-treated MXT mouse mammary tumor model, PALP and TF (Example 9, Experiment 1); type: in vivo; details: co-treated with cisplatin 3-mg/kg i.p.
# Source text: The B16 mouse melanoma and MXT mouse mammary tumors were developed in first generation hybrid BDF1 (C57 B1 female×DBA/2 male) adult female mice kept at specified pathogen free (SPF) hygienic level. These models were chosen for these experiments because these mice have the complete immune system, and both tumors grow very rapidly. To develop the tumors, B16 and MXT tumor tissue fragments of about 0.1-cm^3 were surgically implanted subcutaneously into the intrascapular region to develop the tumors. Each tumor fragment contained about 1-1.5×10^6 cells. The animals were kept in macrolon cages on ventilated rack at 22-24° C. (50-60% humidity) with lighting regimen of 12/12 h light/dark. The animals had free access to tap water and were fed with sterilized standard diet (Charles River VRF1, Germany) ad libitum. The animals were taken care of according to the “Guiding Principle for the care and use of Animals” based upon the Helsinki declaration and they were approved by the local ethical committee.
# In case of both tumor models the tumor size was usually in the range of 0.2 to 0.5-g when treatments started 7-11 days after tumor implantation; the mice were selected so that in the same treatment group the difference in tumor size was no greater than 0.1 gram. In some experiments, the test proteins were suspended in physiological saline and injected in 50-μl volume subcutaneously in the vicinity of tumor (within 1-cm of tumor margin). In other experiments, the test proteins were dispersed in Vaselinum cholesteratum and used topically; 150-mg cream was applied on the tumor and the vicinity of tumor area (with about 0.5-cm of the tumor margin). The tumor volume was determined by using calipers; this technique is well known to one having ordinary skill in the art. Tumor volume was calculated according to the generally accepted formula: V=a^2×b×7r/6, where “a” and “b” mean the shortest and longest diameter, respectively, of the measured tumor.
# Experiment 1. The mouse MXT mammary tumor was developed as described in Example 3. In the first group, animals remained untreated during the whole observation period. In the second group, starting on the 7th day after tumor implantation, mice were intraperitoneally (i.p.) administered 3-mg per 1-kg total weight of cisplatin 7-times every second day. In the third group, starting on the 7th day after tumor implantation, mice were simultaneously administered 3-mg per 1-kg of cisplatin i.p. and 16-mg per 1-kg of purified PALP s.c. In the fourth group, starting on the 7th day after tumor implantation, mice were simultaneously administered 3-mg per 1-kg of cisplatin i.p. and 60-mg per 1-kg of commercial PALP s.c. In the fifth group, starting on the 7th day after tumor implantation, mice were simultaneously administered 3-mg per 1-kg of cisplatin i.p. and 14-mg per 1-kg of commercial TF (T 3309 in the Sigma catalog) s.c. Each treatment was performed 7-times on every second day. Each group included 7 animals. The mean values for total weight, tumor weight and body weight (the difference between total and tumor weight) are shown in TABLE 6.
# B16 mouse melanoma [2] = details: cited from earlier work
# human HT 168 melanoma = details: total weight includes tumor weight; cited from earlier work
# mouse MXT tumor = details: cisplatin treated; cited from earlier work
molecule,measurement,setting,value
"highly purified PALP: human placental alkaline phosphatase purified to homogeneity from commercial PALP; printed as 'PALP' in Tables 1, 7, 8 (protein, UniProt P05187 23-506, looked up) Alkaline phosphatase, …: IIPVEEENPDFWNREAAEALGAAKKLQPAQTAAKNLIIFLGDGMGVSTVTAARILKGQKKDKLGPEIPLAMDRFPYVALSKTYNVDKHVPDSGATATAYLCGVKGNFQTIGLSAAARFNQCNTTRGNEVISVMNRAKKAGKSVGVVTTTRVQHASPAGTYAHTVNRNWYSDADVPASARQEGCQDIATQLISNMDIDVILGGGRKYMFRMGTPDPEYPDDYSQGGTRLDGKNLVQEWLAKRQGARYVWNRTELMQASLDPSVTHLMGLFEPGDMKYEIHRDSTLDPSLMEMTEAALRLLSRNPRGFFLFVEGGRIDHGHHESRAYRALTETIMFDDAIERAGQLTSEEDTLSLVTADHSHVFSFGGYPLRGSSIFGLAPGKARDRKAYTVLLYGNGPGYVLKDGARPDVTESESGSPEYRQQSAVPLDEETHAGEDVAVFARGPQAHLVHGVQEQTFIAHVMAFAACLEPYTACDLAPPAGTTD",Effect on loss of body weight,B16 mouse melanoma [1],reversed loss of body weight
same,Effect on tumor size,B16 mouse melanoma [1],no major effects on the tumor size
same,Effect on body weight loss induced by the tumor and cisplatin,MXT mouse mammary tumor,not only prevented the loss but significantly enhanced body weight
same,Effect on tumor growth,B16 mouse melanoma [2]; administered subcutaneously or topically,reduced tumor growth
same,Effect on the action of CCDTHT on tumor growth,"B16 mouse melanoma [2]; mouse, in vivo",enhance the effect of CCDTHT
same,Effect on tumor induced loss of total weight,human HT 168 melanoma,reduces tumor induced loss of total weight
same,Effect on total weight loss,mouse MXT tumor,reduce total weight loss
